# In PMC3242593, “Influence of glioma tumour microenvironment on the transport of ANG1005 via low-density lipoprotein receptor-related protein 1” (British Journal of Cancer, 2011):
# System: U87 human glioblastoma cells
# Assay: [125I]-Angiopep-2 or [125I]-ANG1005 uptake assay in U87 cells (LRP1-mediated endocytosis)
# Assay type: cell-based
# Conditions: unlabelled Angiopep-2 50 μM or preincubated RAP 1 μM, percentage of control, quadruplicate
# Protocol: In brief, beads were washed twice with 3 ml of PBS on a Whatman filter and resuspended in 60 μl of PBS. Na^125I (1 mCi) from GE Healthcare (Baie d’Urfé, QC, Canada) was added to the bead suspension for 5 min at room temperature. Iodination was initiated by adding 100 μg of peptide (80–100 μl) diluted in 0.1 M phosphate buffer solution, pH 6.5.
# In-vitro silencing of LRP1 was carried out by standard methodologies ([Song et al, 2009]). The sequences of oligonucleotides were […]tt (sense) and […]tt (antisense). Human U87 glioblastoma cells were grown to 50% confluence and were transfected with LRP1 silencing RNA (siRNA) using Lipofectamine 2000 (Life Technologies Corporation, Carlsbad, CA, USA) according to the manufacturer's specifications. After 48 h of transfection, cells were used for subsequent assays. Expression of proteins was assessed by western blot analysis.
# Cells were incubated in medium in which the sodium bicarbonate had been replaced with Ringer/HEPES buffer (150 mM NaCl, 5.2 mM KCl, 2.2. mM CaCl2, 0.2 mM MgCl2·6H2O, 6 mM NaHCO3, 2.8 mM glucose, and 5 mM HEPES). […]
# Cells were seeded in a 24-well plate (5 × 10^4 cells per well) in appropriate media and fed for 3 days. […] Results were quantified with a Wizard 1470 Gamma counter (Perkin-Elmer, Woodbridge, ON, Canada). […]
molecule,measurement,value
"RAP: receptor-associated protein, a known LRP1 ligand that competitively inhibits uptake of Angiopep-2 (protein, UniProt P30533 35-357, looked up) Alpha-2-macroglobulin …: YSREKNQPKPSPKRESGEEFRMEKLNQLWEKAQRLHLPPVRLAELHADLKIQERDELAWKKLKLDGLDEDGEKEARLIRNLNVILAKYGLDGKKDARQVTSNSLSGTQEDGLDDPRLEKLWHKAKTSGKFSGEELDKLWREFLHHKEKVHEYNVLLETLSRTEEIHENVISPSDLSDIKGSVLHSRHTELKEKLRSINQGLDRLRRVSHQGYSTEAEFEEPRVIDLWDLAQSANLTDKELEAFREELKHFEAKIEKHNHYQKQLEIAHEKLRHAESVGDGERVSRSREKHALLEGRTKELGYTVKKHLQDLSGRISRARHNEL",effect of unlabelled competitor on uptake of [125I]-Angiopep-2 (500 nM),inhibited
